Reference: patent US20190309074A1, “DEGLYCOSYLATED ANTIBODY SPECIFICALLY BINDING TO CLEC14A AND USES THEREOF” (WOORI TECHNOLOGIES CORPORATION, priority 2016, published 2019)

T1: hclec14a-CTLD-Fc (human, UniProt Q86T13 31-172, limits assumed)
T1 construct: domain: C-type lectin-like domain (CTLD); also called human clec14a-CTLD-Fc; human CTLD; not shown: Fc
T1 sequence (looked up): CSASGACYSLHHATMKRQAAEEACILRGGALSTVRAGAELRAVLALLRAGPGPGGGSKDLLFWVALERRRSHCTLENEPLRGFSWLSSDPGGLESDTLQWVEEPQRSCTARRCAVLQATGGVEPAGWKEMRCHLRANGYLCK

T2: mclec14a-CTLD-Fc (mouse, UniProt Q8VCP9 31-172, limits assumed)
T2 construct: domain: C-type lectin-like domain (CTLD); also called mouse clec14a-CTLD-Fc; mouse CTLD; not shown: Fc
T2 sequence (looked up): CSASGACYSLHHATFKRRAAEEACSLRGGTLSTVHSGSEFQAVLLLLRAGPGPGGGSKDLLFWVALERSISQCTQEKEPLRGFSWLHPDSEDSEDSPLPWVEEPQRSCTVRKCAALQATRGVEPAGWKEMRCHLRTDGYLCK

B1: deglyco C2 IgG (antibody, V domains shown)
VH: EVQLVESGGGLVQPGGSLRLSCAVSGFTFSGYDMSWIRQAPGKGLEWVAGIYPDGGNTYYADSVKGRFTISRDDSKNTFYLQMNSLRAEDTAVYYCARGATWWVLGPFDYWGQGTLVTVSS
VL: DIQLTQSPSSLSASVGDRVTITCTGSSSNIGATAVTWYQQKPGKAPKLLIYADSHRPSGVPSRFSGSGSGTDFTLTISSLQPEDFATYYCGAWDDSLSGYVFGQGTKVEIKR
notes: IgG expressed in HEK293 cells; also called Deg C2
B2: Deglyco-C3: deglycosylated clone 1 IgG; light chain CDR1 TGSSSNIGWSNVT (SEQ ID NO: 4) (antibody, V domains shown)
VH: EVQLVESGGGLVQPGGSLRLSCAVSGFTFSGYDMSWIRQAPGKGLEWVAGIYPDGGNTYYADSVKGRFTISRDDSKNTFYLQMNSLRAEDTAVYYCARGATWWVLGPFDYWGQGTLVTVSS
VL: DIQLTQSPSSLSASVGDRVTITCTGSSSNIGWSNVTWYQQKPGKAPKLLIYADSHRPSGVPSRFSGSGSGTDFTLTISSLQPEDFATYYCGAWDDSLSGYVFGQGTKVEIKR
B3: Opti 1: IgG, heavy chain CDR3 GAATKVLGKFDC (SEQ ID No: 25), VL of Deg C1 (antibody, V domains shown)
VH: EVQLVESGGGLVQPGGSLRLSCAVSGFTFSGYDMSWIRQAPGKGLEWVAGIYPDGGNTYYADSVKGRFTISRDDSKNTFYLQMNSLRAEDTAVYYCARGAATKVLGKFDCWGQGTLVTVSS
VL: DIQLTQSPSSLSASVGDRVTITCTGSSSNIGRCGVTWYQQKPGKAPKLLIYADSHRPSGVPSRFSGSGSGTDFTLTISSLQPEDFATYYCGAWDDSLSGYVFGQGTKVEIKR
B4: Deglyco-C4: deglycosylated clone 1 IgG; light chain CDR1 TGSSSNIGAVVVT (SEQ ID NO: 5) (antibody, V domains shown)
VH: EVQLVESGGGLVQPGGSLRLSCAVSGFTFSGYDMSWIRQAPGKGLEWVAGIYPDGGNTYYADSVKGRFTISRDDSKNTFYLQMNSLRAEDTAVYYCARGATWWVLGPFDYWGQGTLVTVSS
VL: DIQLTQSPSSLSASVGDRVTITCTGSSSNIGAVVVTWYQQKPGKAPKLLIYADSHRPSGVPSRFSGSGSGTDFTLTISSLQPEDFATYYCGAWDDSLSGYVFGQGTKVEIKR
B5: Opti 3: IgG, heavy chain CDR3 GATWWVLGAFDY (SEQ ID No: 27), VL of Deg C1 (antibody, V domains shown)
VH: EVQLVESGGGLVQPGGSLRLSCAVSGFTFSGYDMSWIRQAPGKGLEWVAGIYPDGGNTYYADSVKGRFTISRDDSKNTFYLQMNSLRAEDTAVYYCARGATWWVLGAFDYWGQGTLVTVSS
VL: DIQLTQSPSSLSASVGDRVTITCTGSSSNIGRCGVTWYQQKPGKAPKLLIYADSHRPSGVPSRFSGSGSGTDFTLTISSLQPEDFATYYCGAWDDSLSGYVFGQGTKVEIKR
B6: Opti 13: IgG, heavy chain CDR3 GAMEQVLGPFDL (SEQ ID No: 37), VL of Deg C1 (antibody, V domains shown)
VH: EVQLVESGGGLVQPGGSLRLSCAVSGFTFSGYDMSWIRQAPGKGLEWVAGIYPDGGNTYYADSVKGRFTISRDDSKNTFYLQMNSLRAEDTAVYYCARGAMEQVLGPFDLWGQGTLVTVSS
VL: DIQLTQSPSSLSASVGDRVTITCTGSSSNIGRCGVTWYQQKPGKAPKLLIYADSHRPSGVPSRFSGSGSGTDFTLTISSLQPEDFATYYCGAWDDSLSGYVFGQGTKVEIKR
B7: Deglyco-C2: deglycosylated clone 1 IgG; light chain CDR1 TGSSSNIGATAVT (SEQ ID NO: 3) (antibody, V domains shown)
VH: EVQLVESGGGLVQPGGSLRLSCAVSGFTFSGYDMSWIRQAPGKGLEWVAGIYPDGGNTYYADSVKGRFTISRDDSKNTFYLQMNSLRAEDTAVYYCARGATWWVLGPFDYWGQGTLVTVSS
VL: DIQLTQSPSSLSASVGDRVTITCTGSSSNIGATAVTWYQQKPGKAPKLLIYADSHRPSGVPSRFSGSGSGTDFTLTISSLQPEDFATYYCGAWDDSLSGYVFGQGTKVEIKR
B8: deglyco C4 IgG (antibody, V domains shown)
VH: EVQLVESGGGLVQPGGSLRLSCAVSGFTFSGYDMSWIRQAPGKGLEWVAGIYPDGGNTYYADSVKGRFTISRDDSKNTFYLQMNSLRAEDTAVYYCARGATWWVLGPFDYWGQGTLVTVSS
VL: DIQLTQSPSSLSASVGDRVTITCTGSSSNIGAVVVTWYQQKPGKAPKLLIYADSHRPSGVPSRFSGSGSGTDFTLTISSLQPEDFATYYCGAWDDSLSGYVFGQGTKVEIKR
notes: IgG expressed in HEK293 cells; also called Deg C4
B9: deglyco C3 IgG (antibody, V domains shown)
VH: EVQLVESGGGLVQPGGSLRLSCAVSGFTFSGYDMSWIRQAPGKGLEWVAGIYPDGGNTYYADSVKGRFTISRDDSKNTFYLQMNSLRAEDTAVYYCARGATWWVLGPFDYWGQGTLVTVSS
VL: DIQLTQSPSSLSASVGDRVTITCTGSSSNIGWSNVTWYQQKPGKAPKLLIYADSHRPSGVPSRFSGSGSGTDFTLTISSLQPEDFATYYCGAWDDSLSGYVFGQGTKVEIKR
notes: IgG expressed in HEK293 cells; also called Deg C3

Legend:
hclec14a-CTLD-Fc = biological target: T1, hclec14a-CTLD-Fc; experiment: ELISA on hclec14a-CTLD-Fc
mclec14a-CTLD-Fc = biological target: T2, mclec14a-CTLD-Fc; experiment: ELISA on mclec14a-CTLD-Fc
[1] = aggregation and purification amounts of deglycosylated antibodies, before and after φ; assay type: physicochemical; conditions: based on 100 ml culture
HUVEC cells = experiment: EGM-dependent HUVEC tube formation; assay type: cell-based, human; conditions: 20 ug/ml
Description: EGM is a type of complex including a variety of angiogenesis factors, which has been used to induce strong angiogenesis using vascular endothelial cells.

GFP-transfected HUVECs = experiment: IncuCyte real-time VEGF-dependent angiogenesis assay; assay type: cell-based, human; conditions: for anti-angiogenesis activity (tube length and branch point): 20 ug/ml; for changes in tube length (progression of angiogenesis): representative images
Experimental: In order to identify inhibitory activity of optimized candidate antibodies against angiogenesis dependent upon VEGF, which is a key factor of angiogenesis, anti-angiogenesis activity was comparatively analyzed using an IncuCyte FLR live content imaging system (Essen Bioscience Inc.) providing real-time analysis of angiogenesis. First, GFP-transfected HUVECs were seeded on a […] plate, were treated with 36 types of antibodies at a concentration of 20 ug/ml and in vitro efficacy was then compared. At this time, optimized antibodies were comparatively analyzed in terms of efficacy with parental IgG (parent antibody: clone 1 of WO 2013/187556), deglyco C1 and bevacizumab (Avastin) as positive control groups.

[2] = system: MAECs (mouse aortic endothelial cells); experiment: flow cytometry cross-species reactivity; assay type: cell-based; conditions: 20 ug/ml
Experimental: (§1) In order to identify cross-species reactivity of the optimized antibodies, HUVECs (human umbilical vein endothelial cells) and MAECs (mouse aortic endothelial cells) were each cultured, the two cell groups were treated with 20 ug/ml of the parent antibody (original C1), deglyco C1, and clones 1, 13 and 16, and whether or not binding ability exists on the surface of two types of cells was identified by flow cytometry.

[3] = system: HUVECs (human umbilical vein endothelial cells); experiment: flow cytometry cross-species reactivity; assay type: cell-based; conditions: 20 ug/ml
Experimental: as §1

HUVEC migration = experiment: IncuCyte HUVEC migration assay; assay type: cell-based, human; conditions: 20 ug/ml
Experimental: In order to analyze in vitro efficacies of the optimized candidate antibodies on endothelial migration, which is another function of angiogenesis, HUVEC migration assay was conducted using an IncuCyte FLR live content imaging system (Essen Bioscience Inc). At this time, regarding a wound, a uniform wound was created using a wound maker commercially available from Incucyte and was treated with 20 ug/ml of respective antibodies, and inhibitory activity against migration was comparatively evaluated.

Row | Molecule | binding result (hclec14a-CTLD-Fc) | binding result (mclec14a-CTLD-Fc) | Final um, After φ [1] | Final um, Before φ [1] | Fraction1, After φ [1] | Fraction1, Before φ [1] | Fraction2, After φ [1] | Fraction2, Before φ [1] | Fraction3, After φ [1] | Fraction3, Before φ [1] | Fraction4, After φ [1] | Fraction4, Before φ [1] | further results
1 | B1 | binds | binds | – | – | – | – | – | – | – | – | – | – | –
2 | B2 | – | – | 2.768 mg | 2.918 mg | 0.012 mg | 0.014 mg | 2.109 mg | 2.209 mg | 0.520 mg | 0.580 mg | 0.127 mg | 0.129 mg | –
3 | B3 | – | – | – | – | – | – | – | – | – | – | – | – | suppression of EGM-dependent tube formation (HUVEC cells): efficiently suppressing angiogenesis; anti-angiogenesis activity (tube length and branch point) (GFP-transfected HUVECs): potent efficacy; changes in tube length (progression of angiogenesis) (GFP-transfected HUVECs): same efficacy as Suramin and Avastin; binding to MAEC surface [2]: had cross-species reactivity; binding to HUVEC surface [3]: had cross-species reactivity; endothelial migration inhibitory activity (HUVEC migration): same endothelial migration inhibitory activity as parent antibody (original C1), deglyco C1 IgG, and Avastin
4 | B4 | – | – | 1.442 mg | 1.390 mg | 0.015 mg | 0.019 mg | 1.126 mg | 1.135 mg | 0.251 mg | 0.255 mg | 0.050 mg | 0.057 mg | –
5 | B5 | – | – | – | – | – | – | – | – | – | – | – | – | anti-angiogenesis activity (tube length and branch point) (GFP-transfected HUVECs): potent efficacy; changes in tube length (progression of angiogenesis) (GFP-transfected HUVECs): same efficacy as Suramin and Avastin
6 | B6 | – | – | – | – | – | – | – | – | – | – | – | – | suppression of EGM-dependent tube formation (HUVEC cells): efficiently suppressing angiogenesis; binding to MAEC surface [2]: had cross-species reactivity; binding to HUVEC surface [3]: had cross-species reactivity; endothelial migration inhibitory activity (HUVEC migration): same endothelial migration inhibitory activity as parent antibody (original C1), deglyco C1 IgG, and Avastin
7 | B7 | – | – | 5.018 mg | 5.032 mg | 0.018 mg | 0.019 mg | 3.702 mg | 3.718 mg | 1.110 mg | 1.113 mg | 0.198 mg | 0.201 mg | –
8 | B8 | binds | binds | – | – | – | – | – | – | – | – | – | – | –
9 | B9 | binds | binds | – | – | – | – | – | – | – | – | – | – | –
